Reference: US20240409645A1 (DUALYX, published 2024)
Numbering of substitutions follows the chain as printed.

B1: 31-MP04E03 (VHH)
VHH: QVQLVESGGGLVQAGGSLRLSCTGYGGAFTGYALGWFRQAPGKEREFVARINWSGSFTYYASSVKGRFTISRDNAKNTMYLQMNNLKPEDTAVYYCAADNPSTLATDYDNWGQGTQVTVSS
notes: VHH in periplasmic extract; also called FJ1427_P035MP04E03; clone nr
B2: FJ1427_P035MP06F09 (VHH)
VHH: QVQLVESGGGLVQAGGSLTLSCAASGRAFSNYPVGWFRQAPGKEREFVAAITWLSGSTLYADSVEGRFTISRDNAKNTVYLLMSSLKPEDTALYFCAAALKTITRGQNDYSYWGQGTQVTVSS
notes: Soluble VHH in periplasmic extract (P.E.); also called Clone nr; 550
B3: FJ1427_P035MP06C10 (VHH)
VHH: QVQLVESGGGLVQAGGSLRLSCAVSGDVFVRYTMAWFRQAPGKEREFVASVTDSGRTTEYVDSVKGRFTVSRDNAKNTAYLQMNNLKPEDTAVYYCAANTDYFQIRSLDLNTWGQGTQVTVSS
notes: Soluble VHH in periplasmic extract (P.E.); also called Clone nr; 555
B4: FJ1427_P035MP04D01 (VHH)
VHH: QVQLVESGGGLVQAGGSLRLSCAASGRTLSRYAMGWFRQAPGKEREFVTANSWGGDTYYADSVQGRFTFSRDNAKNTVYLQMNSLQPEDTAVYYCAAAPTSFATTAYSSSNSYAYWGQGTQVTVSS
notes: VHH in periplasmic extract; also called clone nr
B5: FJ1427_P035MP04D06 (VHH)
VHH: B4 VHH with T28A, Y32L, T49V, N51S, G55D, Y58F, Q64K, E88G
notes: as for B4
B6: FJ1427_P035MP04C04 (VHH)
VHH: B4 VHH with Q1E
notes: as for B4
B7: FJ1427_P035MP04G04 (VHH)
VHH: B4 VHH with M34V, Y58F, Q86L, T90A, A114K, Y115V
notes: as for B4
B8: FJ1427_P035MP04H03 (VHH)
VHH: B4 VHH with V2L, T49A, N51D, Y58F, Q64E, T77A, V78A, V92T, A97G, A114R
notes: as for B4
B9: 34-MP04A12 (VHH)
VHH: B4 VHH with G16S, Y32L, T49A, A50V, Y58F, Q64E, F69Y, N76S, T77A, T120A
notes: VHH in periplasmic extract; also called FJ1427_P035MP04A12; clone nr
B10: FJ1427_P035MP04E09 (VHH)
VHH: B4 VHH with F67S
notes: as for B4
B11: FJ1427_P035MP04A06 (VHH)
VHH: B4 VHH with A14P
notes: as for B4
B12: FJ1427_P035MP04H07 (VHH)
VHH: B4 VHH with V2L
notes: as for B4
B13: FJ1427_P035MP04B08 (VHH)
VHH: B4 VHH with A23V
notes: as for B4
B14: 28-MP04D02 (VHH)
VHH: B4 VHH with S109G
notes: VHH in periplasmic extract; also called FJ1427_P035MP04D02; clone nr; 300
B15: FJ1427_P035MP04E07 (VHH)
VHH: B4 VHH with E46D, T49A, N51T, Q64E, T77A
notes: as for B4
B16: FJ1427_P035MP04C06 (VHH)
VHH: B4 VHH with Q1E
notes: as for B4
B17: FJ1427_P035MP04F03 (VHH)
VHH: B4 VHH with Y32N, T49A, N51D, Y58F, Q64E, T77A, A97G, A114R
notes: VHH in periplasmic extract; also called clone nr; 310
B18: FJ1427_P035MP04A01 (VHH)
VHH: B4 VHH with Q1E
notes: as for B4
B19: FJ1427_P035MP04D03 (VHH)
VHH: B4 VHH with Q1E, G15E
notes: as for B4
B20: FJ1427_P035MP04F07 (VHH)
VHH: B4 VHH with Q1E
notes: as for B4
B21: 37-MP07F09 (VHH)
VHH: B4 VHH with F47Y, T49A, A50I, N51D, Y58F, Q64E, T77E, A97G, A114R
notes: VHH in periplasmic extract; also called FJ1427_P035MP07F09; clone nr
B22: FJ1427_P035MP04B05 (VHH)
VHH: B4 VHH with Q1E
notes: as for B4
B23: 38-MP07A11 (VHH)
VHH: QVQLVESGGGLVQAGGSLRLSCAASGRSLSRDAMGWFRQAPGKEREFVAVMSWGGDTFYTDSVEGRFTFSRDNAKNAVYLEMNDLQPEDTAVYYCAAAPTSFATTAYSSSNSYSYWGRGTQVTVSS
notes: VHH in periplasmic extract; also called FJ1427_P035MP07A11; clone nr

Assays:
mouse IL-2Rγ [1] = biological target: T1, mouse IL-2Rγ (mouse, UniProt P34902 23-263); experiment: PE binding ELISA, periplasmic extract on coated protein
T1 construct: also called mo IL-2R
T1 sequence (looked up): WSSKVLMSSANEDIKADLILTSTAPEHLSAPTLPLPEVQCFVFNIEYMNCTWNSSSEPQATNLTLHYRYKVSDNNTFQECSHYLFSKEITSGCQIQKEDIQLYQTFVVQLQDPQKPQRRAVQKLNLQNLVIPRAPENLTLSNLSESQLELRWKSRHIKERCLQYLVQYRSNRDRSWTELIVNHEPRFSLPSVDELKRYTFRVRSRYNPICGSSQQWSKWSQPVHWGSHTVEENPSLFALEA
Procedure: (§1) In a binding ELISA, human or mouse IL-2Rα, IL-2Rβ and IL-2Rγ proteins were coated directly on maxisorp microtiter plates overnight at 4° C. Free binding sites were blocked using 4% Marvel in PBS for 1 hour. Next, 1:5 dilution of P.E. in 1% Marvel/PBS were added to wells and incubated for 1 hour. […] Binding specificity was determined based on O.D. at 450 nm values compared to negative controls.

mouse IL-2Rγ [2] = biological target: T1, mouse IL-2Rγ; experiment: SPR off-rate ranking, periplasmic extract on immobilised protein
Procedure: (§2) SPR was performed to determine dissociation rates using Biacore 3000 instrument (GE Healthcare). Briefly, human and mouse IL-2R proteins were immobilized on carboxylmethyl dextran sensor chip (CM5) at approximately 2500 RUs using amine coupling in acetate buffer (GE Healthcare). The VHH-containing P.E. were loaded with a flow rate of 30 uL/min and the off-rates were measured over a 120s period.

human IL-2Rβ [3] = biological target: T2, human IL-2Rβ (human, UniProt P14784 27-240, limits assumed); experiment: P.E. binding ELISA, human IL-2Rβ coated
T2 construct: Recombinant human IL-2Rβ protein, coated on ELISA plates or immobilized on a CM5 chip; also called hu IL-2R; interleukin 2 receptor β-chain
T2 sequence: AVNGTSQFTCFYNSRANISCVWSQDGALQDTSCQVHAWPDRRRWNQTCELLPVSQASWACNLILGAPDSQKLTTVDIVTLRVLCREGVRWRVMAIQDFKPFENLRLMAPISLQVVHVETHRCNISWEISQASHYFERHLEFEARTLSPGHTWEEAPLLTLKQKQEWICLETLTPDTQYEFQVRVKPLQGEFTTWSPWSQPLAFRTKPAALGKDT
Procedure: as §1

human IL-2Rβ [4] = biological target: T2, human IL-2Rβ; experiment: SPR off-rate ranking of P.E., human IL-2Rβ immobilized
Procedure: as §2

[5] = biological target: T3, human IL-2Rγ (common cytokine receptor γ-chain) (human, UniProt P31785 23-262, limits assumed); experiment: PE binding ELISA, periplasmic extract on coated protein
T3 construct: Recombinant protein coated on the plate or immobilised on a CM5 chip; also called hu IL-2R; CD132
T3 sequence: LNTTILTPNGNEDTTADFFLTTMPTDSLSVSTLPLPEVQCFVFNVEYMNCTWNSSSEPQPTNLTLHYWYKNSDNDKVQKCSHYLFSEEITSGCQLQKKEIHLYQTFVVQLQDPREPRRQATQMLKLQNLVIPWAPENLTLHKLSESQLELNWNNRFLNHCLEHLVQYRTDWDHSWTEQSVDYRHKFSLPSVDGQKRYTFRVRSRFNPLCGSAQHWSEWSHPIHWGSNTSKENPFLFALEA
Procedure: as §1

[6] = biological target: T3, human IL-2Rγ (common cytokine receptor …); experiment: SPR off-rate ranking, periplasmic extract on immobilised protein
Procedure: as §2

Binder | OD (PE binding ELISA) (mouse IL-2Rγ [1]) [OD450 nm] | koff (mouse IL-2Rγ [2]) [s⁻¹] | OD450 nm (P.E. binding ELISA) (human IL-2Rβ [3]) [OD450 nm] | koff (human IL-2Rβ [4]) [s⁻¹] | OD (PE binding ELISA) [5] [OD450 nm] | koff [6] [s⁻¹]
B1 | 0.495 | 0.283 |  |  |  | 
B2 |  |  | 0.564 | 0.000147 |  | 
B3 |  |  | 0.358 | 0.000208 |  | 
B4 | 0.066 | 0.113 |  |  | 1.02 | 0.00182
B5 | 0.637 | 0.0137 |  |  | 2.1 | 0.00145
B6 | 0.063 | 0.151 |  |  | 1.43 | 0.00214
B7 | 0.276 | 0.0666 |  |  | 1.67 | 0.00122
B8 | 0.442 | 0.0297 |  |  | 1.25 | 0.001
B9 | 3.6 | 0.00809 |  |  | 1.3 | 0.000333
B10 | 0.07 | 0.109 |  |  | 0.652 | 0.00162
B11 | 0.063 | 0.113 |  |  | 0.898 | 0.00283
B12 | 0.076 | 0.101 |  |  | 0.919 | 0.00154
B13 | 0.075 | 0.113 |  |  | 1.44 | 0.00205
B14 | 0.054 | 0.319 |  |  | 0.782 | 0.0088
B15 | 0.079 | 0.215 |  |  | 0.919 | 0.00189
B16 | 0.061 | 0.0465 |  |  | 0.797 | 0.00201
B17 | 0.3 | 0.061 |  |  | 1.77 | 0.00074
B18 | 0.06 | 0.132 |  |  | 0.867 | 0.00156
B19 | 0.063 | 0.168 |  |  | 1.66 | 0.00143
B20 | 0.064 | 0.156 |  |  | 0.789 | 0.00249
B21 | 1.49 | 0.007 |  |  | 1.81 | 0.00126
B22 | 0.063 | 0.138 |  |  | 1.49 | 0.00292
B23 | 0.173 | 0.0149 |  |  | 1.31 | 0.00235
